# Data published in patent US20110020786A1, “PEPTIDE DENDRIMERS: AFFINITY REAGENTS FOR BINDING NOROVIRUSES” (BAYLOR COLLEGE OF MEDICINE, priority 2007, published 2011).
# Ends that are not written are not given here.
# Biological target: NoVLPs (Norovirus-like particles) (so in the source)
# Assay: SPR (BIAcore), NoVLPs immobilized, dendrimer injected at 8-240 µM, steady-state fit of the equilibrium average response
binder,measurement,value
"RHFQTHTVPLSL (also: octovalent MAP dendrimer, eight copies on branching lysine core) […8 (the octovalent dendrimer of SEQ ID NO: 1)]",Kd,117 µM
